Test results reported in US20170037106A1 (FLOREY INSTITUTE OF NEUROSCIENCE AND MENTAL HEALTH, published 2017).
Square brackets hold non-standard residues; d marks the D form. Ends that are not written are not given here. hArg = N=C(N)NCCCC[C@H](N)C(=O)O

B1: Modified B7-33 (B7-33 C11.23S) (peptide)
peptide: VIKLSGRELVRAQIAISGMSTWSKRSL-NH2
notes: also called single chain B7-33 C11.23S peptide
B2: native H2 relaxin (human relaxin-2, heterodimer of A chain and B1-29 B chain) (ligand)
chain 1: QLYSALANKCCHVGCTKRSLARFC
chain 2: DSWMEEVIKLCGRELVRAQIAICGMSTWS
modifications: disulfide (positions not given here); ends not checked; also: three disulfides (two inter-chain, one within A chain), places not given here
notes: mature; Two chains linked by three disulfide bonds (two inter-chain, one within the A chain); also called native human relaxin-2; Eu^3+-labelled H2 relaxin (tracer form)
B3: KKKK (AcB7-29 C11.23S) (peptide)
peptide: Ac-VIKLSGRELVRAQIAISGMSTWSKKKK-NH2
notes: AcB7-29 C11.23S with KKKK at the C-terminus in place of KRSL
B4: Native B7-33 (peptide)
peptide: VIKLCGRELVRAQIAICGMSTWSKRSL-NH2
modifications: not fully specified; printed as VIKLCGRELVRAQIAICGMSTWSKRSL-NH2; also: oxidised (ox), disulfide pattern not described
notes: also called B7-33ox
B5: B1-33ox (peptide)
peptide: DSWMEEVIKLCGRELVRAQIAICGMSTWSKRSL-NH2
modifications: not fully specified (bridges); printed as DSWMEEVIKLCGRELVRAQIAICGMSTWSKRSL-NH2; cysteine pairing not given here
B6: B7-33 C11.23S R17HR (peptide)
peptide: VIKLSGRELV[hArg]AQIAISGMSTWSKRSL-NH2
modifications: N-terminus assumed
SMILES: CC[C@H](C)[C@H](NC(=O)[C@H](C)NC(=O)[C@@H](NC(=O)[C@H](CCC(N)=O)NC(=O)[C@H](C)NC(=O)[C@H](CCCCNC(=N)N)NC(=O)[C@@H](NC(=O)[C@H](CC(C)C)NC(=O)[C@H](CCC(=O)O)NC(=O)[C@H](CCCNC(=N)N)NC(=O)CNC(=O)[C@H](CO)NC(=O)[C@H](CC(C)C)NC(=O)[C@H](CCCCN)NC(=O)[C@@H](NC(=O)[C@@H](N)C(C)C)[C@@H](C)CC)C(C)C)[C@@H](C)CC)C(=O)N[C@@H](CO)C(=O)NCC(=O)N[C@@H](CCSC)C(=O)N[C@@H](CO)C(=O)N[C@H](C(=O)N[C@@H](Cc1c[nH]c2ccccc12)C(=O)N[C@@H](CO)C(=O)N[C@@H](CCCCN)C(=O)N[C@@H](CCCNC(=N)N)C(=O)N[C@@H](CO)C(=O)N[C@@H](CC(C)C)C(N)=O)[C@@H](C)O

Each binder was assayed against T1, 7BP: fusion protein comprising the extracellular domain of RXFP1 and the transmembrane domain of CD8, on cells (UniProt Q9HBX9 1-409) (assay: Eu-H2 relaxin competition on 7BP cells).
T1 construct: extracellular domain;domain: transmembrane domain; also called 7BP cells; not shown: transmembrane domain of CD8
T1 sequence (looked up): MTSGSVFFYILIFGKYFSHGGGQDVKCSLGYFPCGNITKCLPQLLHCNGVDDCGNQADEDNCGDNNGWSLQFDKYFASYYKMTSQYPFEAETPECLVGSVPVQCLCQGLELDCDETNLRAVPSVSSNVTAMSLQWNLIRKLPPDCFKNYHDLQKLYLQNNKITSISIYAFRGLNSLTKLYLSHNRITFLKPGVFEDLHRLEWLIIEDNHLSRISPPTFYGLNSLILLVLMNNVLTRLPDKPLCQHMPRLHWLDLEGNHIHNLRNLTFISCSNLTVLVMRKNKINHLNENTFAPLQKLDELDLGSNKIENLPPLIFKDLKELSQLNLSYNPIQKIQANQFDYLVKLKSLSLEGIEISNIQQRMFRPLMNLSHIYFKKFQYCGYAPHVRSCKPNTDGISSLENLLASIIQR

| Binder | pKi [log M] |
| --- | --- |
| Ac-VIKLSGRELVRAQIAISGMSTWSKRSL-NH2 [AcB7-33 C11.23S] | 7.54 |
| B1 | 7.65 |
| Ac-VIKLSGAELVAAQAAISGMSTWSKRSL-NH2 [R13/17A I20A (AcB7-33 C11.23S)] | 5.54 |
| Ac-VIKLSGAELVRAQIAISGMSTWSKRSL-NH2 [R13A (AcB7-33 C11.23S)] | 5.76 |
| Ac-VIKLSGRELVAAQIAISGMSTWSKRSL-NH2 [R17A (AcB7-33 C11.23S)] | 6.01 |
| B2 | 8.97 |
| B3 | 8.91 |

Each binder was assayed against T2, RXFP1 (LGR7) receptor, on stably transfected HEK-293T cells (UniProt Q9HBX9) (assay: cell-based or functional assay).
T2 sequence (looked up): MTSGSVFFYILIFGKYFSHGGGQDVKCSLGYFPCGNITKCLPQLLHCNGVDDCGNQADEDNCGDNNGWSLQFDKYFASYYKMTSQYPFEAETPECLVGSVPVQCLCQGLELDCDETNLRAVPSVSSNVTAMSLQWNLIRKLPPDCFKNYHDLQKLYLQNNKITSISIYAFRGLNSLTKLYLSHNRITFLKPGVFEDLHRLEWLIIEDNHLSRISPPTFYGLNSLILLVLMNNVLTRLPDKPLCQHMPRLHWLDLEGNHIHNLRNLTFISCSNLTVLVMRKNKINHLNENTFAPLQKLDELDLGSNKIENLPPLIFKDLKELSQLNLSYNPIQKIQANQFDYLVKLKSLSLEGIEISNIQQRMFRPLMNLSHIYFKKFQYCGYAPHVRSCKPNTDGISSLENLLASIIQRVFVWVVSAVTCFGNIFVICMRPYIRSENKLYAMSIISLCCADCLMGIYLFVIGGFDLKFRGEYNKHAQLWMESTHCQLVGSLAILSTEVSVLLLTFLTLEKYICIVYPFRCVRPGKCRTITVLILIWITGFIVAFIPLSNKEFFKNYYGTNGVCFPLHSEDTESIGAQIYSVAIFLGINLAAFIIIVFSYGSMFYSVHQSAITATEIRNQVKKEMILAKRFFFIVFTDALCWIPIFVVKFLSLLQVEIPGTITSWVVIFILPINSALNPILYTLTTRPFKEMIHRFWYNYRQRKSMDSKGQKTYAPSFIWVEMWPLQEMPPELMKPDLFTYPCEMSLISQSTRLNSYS

| Binder | cAMP pEC50 [log M] |
| --- | --- |
| Ac-VIKLSGAELVAAQAAISGMSTWSKRSL-NH2 [R13/17A I20A (AcB7-33 C11.23S)] | < 5 |
| Ac-VIKLSGAELVRAQIAISGMSTWSKRSL-NH2 [R13A (AcB7-33 C11.23S)] | < 5 |
| Ac-VIKLSGRELVAAQIAISGMSTWSKRSL-NH2 [R17A (AcB7-33 C11.23S)] | < 5 |

Each binder was assayed against T3, RXFP1 (LGR7) receptor, on stably transfected HEK-293T cells (UniProt Q9HBX9 1-757, limits assumed) (assay: Eu-H2 relaxin competition, whole HEK-293T cells stably expressing RXFP1).
T3 construct: whole, on cells; also called HEK-RXFP1 cells
T3 sequence (looked up): T2 sequence (looked up)
Procedure: Human embryonic kidney (HEK-293T) cells stably transfected with RXFP1 were cultured in RPMI 1640 medium supplemented with 10% fetal calf serum, 100 μg/ml penicillin, 100 μg/ml streptomycin and 2 mM L-glutamine and plated into 96-well pre-coated with poly-L-lysine for whole cell binding assays. Competition binding experiments were conducted with Eu³⁺-labelled H2 relaxin (as per Shabanpoor et al., 2012, Biochem Biophys Res Commun. 420, 253-256) in the absence or presence of increasing concentrations of unlabelled relaxin-2 B chain derivatives. Nonspecific binding was determined with an excess of unlabelled peptides (500 nM H2 relaxin). Fluorescent measurements were recorded at an excitation wavelength of 340 nm and emission of 614 nm on a Victor plate reader (Perkin-Elmer Inc.). […] Statistical differences in pIC₅₀ values were analyzed using one-way analysis of variance coupled to Newman Keul's multiple comparison test for multiple group comparisons in GraphPad Prism 6.
#p < 0.001 vs H2 relaxin ¹Data are presented as the mean ± S.E of the percentage of the total specific binding of triplicate wells, repeated in at least three separate experiments, and curves were fitted using one-site binding curves in GraphPad Prism 6 (GraphPad Inc, San Diego, CA).

| Binder | pKi [log M] |
| --- | --- |
| B4 | 6.15 |
| Ac-VIKLSGRELVRAQIAISGMSTWSKRSL-NH2 [AcB7-33 C11.23S] | 6 |
| B1 | 5.54 |
| B2 | 8.96 |
| B3 | 6.25 |
| B5 | 6.61 |
| DSWMEEVIKLSGRELVRAQIAISGMSTWSKRSL-NH2 [B1-33 C11.23S] | 5.33 |
| B6 | 6.52 |

Each binder was assayed against T3, RXFP1 (LGR7) receptor, on stably … (assay: cell-based or functional assay).

| Binder | cAMP pEC50 [log M] |
| --- | --- |
| B4 | 5.11 |
| Ac-VIKLSGRELVRAQIAISGMSTWSKRSL-NH2 [AcB7-33 C11.23S] | 5.4 |
| VIKLSGRELVKAQIAISGMSTWSKRSL-NH2 [B7-33 C11.23S R17K] | < 5 |
| Ac-VIKLSGRELVRAQAAISGMSTWSKRSL-NH2 [I20A (AcB7-33 C11.23S)] | < 5 |
| B1 | 5.12 |
| B2 | 10.5 |
| B3 | 5.81 |
| B5 | < 5 |
| DSWMEEVIKLSGRELVRAQIAISGMSTWSKRSL-NH2 [B1-33 C11.23S] | 5.1 |
| VIKLSGRELVRAQIAISGMSTWS-NH2 [B7-29 C11.23S] | < 5 |
| B6 | < 5 |
